Measurements published in US20200324001A1 (NATIONAL UNIVERSITY CORPORATION OKAYAMA UNIVERSITY, published 2020).
One block for each binder: values may come before it.

Assays:
[1] = target: T1, human recombinant mesothelin (r-MSLN) (human, UniProt Q13421 296-598, limits assumed); assay: BLI (BLItz, AR2G biosensor), unlabeled scFv against r-MSLN
T1 construct: also called recombinant MSLN; antigen r-MSLN

[2] = target: T1, human recombinant mesothelin (r-MSLN); assay: BLI (BLItz, AR2G biosensor), scFv after 89Zr labeling against r-MSLN
Description: DFO modification to each His-tag scFv was performed by incubation in bicarbonate buffer at a pH of 9.0 at 37° C. for 1 hour so that the ratio of dissolved chelating agent deferoxamine (p-SCN-Bn-DFO) to His-tag scFv was 3:1. ⁸⁹Zr was produced with a cyclotron (HM-12 cyclotron, Sumitomo Heavy Industries Ltd., Tokyo, Japan), and ⁸⁹Zr-oxalate was obtained. ⁸⁹Zr-oxalate, Na₂CO₃ (2M), and HEPES (0.5 M) were mixed so that the ratio of ⁸⁹Zr-oxalate to Na₂CO₃ (2M) to HEPES (0.5 M) was 2:1:10 and adjusted to a pH of 7.0, and the mixture was mixed with each DFO-modified His-tag scFv clone in which the solvent was replaced with gentisic acid physiological saline (5 mg/mL), followed by incubation at 37° C. for 30 minutes, thereby obtaining ⁸⁹Zr-DFO-scFvs. Unbound ⁸⁹Zr was removed by ultrafiltration using an Amicon Ultra 10K centrifugal filter. The radiochemical purity was determined by thin-layer chromatography-autoradiography (TLC-ARG) and HPLC (LC-20, Shimadzu Co., Kyoto, Japan). […] The in vitro stability of the radiolabeled scFvs after incubation in 50% human plasma/PBS at 37° C. for 6 hours was also analyzed. […] Immediately after mixing and after 6-hour incubation, a portion of the mixture of the radiolabeled scFv and the plasma was measured at 230 nm by HPLC, and the radioactivity was measured with a GABI star (Raytest, Straubenhardt, Germany). […]

[3] = target: T1, human recombinant mesothelin (r-MSLN); assay: BLI (BLItz, AR2G biosensor), scFv after DFO modification against r-MSLN
[4] = target: T2, mesothelin (MSLN) expressed on human cancer cell lines (human, UniProt Q13421 296-598); assay: flow cytometry on Hela cells; grade of MFI ratio to control (+ = 4.9-1.5)
T2 construct: whole, on cells; also called MSLN expressed in cancer cells
Description: (§1) A total of 28 cell lines were used for FCM analysis. The “MSLN exp ref” column indicates positive MSLN expression shown in previous studies. The “MSLN exp FCM” column indicates the ratio of the mean fluorescence intensity […] of the control; a ratio of 5 or more was indicated as “++,” a ratio of 4.9-1.5 was indicated as “+,” and a ratio of 1.4 or less is indicated as “−.”
(§2) The human cancer cell lines (Table 1) were treated with Cell Dissociation Buffer, enzyme-free, PBS (Gibco/Life Technologies, CA, USA) and harvested as single-cell suspensions. 1×10⁶ cells were washed once with cold PBS containing 2% FBS and 1 mM EDTA, and a full-length anti-human MSLN antibody, each anti-human MSLN cp3-scFv clone, or each His-tag scFv clone was used as a primary antibody. For the full-length anti-human MSLN antibody, an anti-KLH antibody (IgG2b isotype control) was used as a negative control, and an Alexa Fluor 488-labeled goat anti-mouse IgG antibody was used as a secondary antibody. […] The mean value of the fluorescence intensity (excluding the dead cell population) was obtained using BD FACSDiva software and calculated using Microsoft Excel.

[5] = target: T2, mesothelin (MSLN) expressed on human …; assay: flow cytometry on 22Rv1 cells; grade of MFI ratio to control (+ = 4.9-1.5)
Description: as §1, §2

[6] = target: T2, mesothelin (MSLN) expressed on human …; assay: flow cytometry on MKN45 cells; grade of MFI ratio to control (+ = 4.9-1.5)
Description: as §1, §2

[7] = target: T2, mesothelin (MSLN) expressed on human …; assay: flow cytometry on MKN74 cells; grade of MFI ratio to control (+ = 4.9-1.5)
Description: as §1, §2

[8] = target: T2, mesothelin (MSLN) expressed on human …; assay: flow cytometry on BxPC-3 cells; grade of MFI ratio to control (+ = 4.9-1.5)
Description: as §1, §2

[9] = target: T2, mesothelin (MSLN) expressed on human …; assay: flow cytometry on CFPAC-1 cells; grade of MFI ratio to control (+ = 4.9-1.5)
Description: as §1, §2

[10] = target: T2, mesothelin (MSLN) expressed on human …; assay: flow cytometry on HEC-1-A cells; grade of MFI ratio to control (+ = 4.9-1.5)
Description: as §1, §2

[11] = target: T2, mesothelin (MSLN) expressed on human …; assay: flow cytometry on SK-OV-3 cells; grade of MFI ratio to control (+ = 4.9-1.5)
Description: as §1, §2

[12] = target: T2, mesothelin (MSLN) expressed on human …; assay: flow cytometry on SiHa cells; grade of MFI ratio to control (++ = 5 or more)
Description: as §1, §2

[13] = target: T2, mesothelin (MSLN) expressed on human …; assay: flow cytometry on NCI-H596 cells; grade of MFI ratio to control (+ = 4.9-1.5)
Description: as §1, §2

[14] = target: T2, mesothelin (MSLN) expressed on human …; assay: flow cytometry on NCI-N87 cells; grade of MFI ratio to control (++ = 5 or more)
Description: as §1, §2

[15] = target: T2, mesothelin (MSLN) expressed on human …; assay: flow cytometry on OVCAR-3 cells; grade of MFI ratio to control (++ = 5 or more)
Description: as §1, §2

[16] = target: T2, mesothelin (MSLN) expressed on human …; assay: flow cytometry on NCI-H226 cells; grade of MFI ratio to control (++ = 5 or more)
Description: as §1, §2

T1 sequence (Q13421 other isoform, or with tags, fused parts or gaps limits assumed): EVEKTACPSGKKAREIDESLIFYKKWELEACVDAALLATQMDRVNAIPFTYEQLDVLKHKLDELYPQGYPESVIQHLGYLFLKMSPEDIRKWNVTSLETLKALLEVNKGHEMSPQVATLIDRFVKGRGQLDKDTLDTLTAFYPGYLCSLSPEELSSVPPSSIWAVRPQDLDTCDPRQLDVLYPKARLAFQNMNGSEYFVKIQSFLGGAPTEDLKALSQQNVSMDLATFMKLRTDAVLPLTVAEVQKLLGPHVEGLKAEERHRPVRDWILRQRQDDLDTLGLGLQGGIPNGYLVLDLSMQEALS
T2 sequence (Q13421 other isoform, or with tags, fused parts or gaps limits assumed): as above

B2: 89Zr-DFO-scFv H2a064 (scFv)
scFv: SYELTQPPSVSVSPGQTARITCSGDALPKHYASWYQQKPGQAPVLLIYKDTERPSGIPERFSGSSSGTTVTLTISGVQAEDEADYYCQSADSSVTVVFGGGTKLTVLGGGGSGGGGSGGGGSGGGGSQVQLVQSGGGLVQPGRSLRLSCAASGFTFDDYAMHWVRQAPGKGLEWVSGISWNSGSIGYADSVKGRFTISRDNAKNSLYLQMNSLRAEDTALYYCAKDIGSSGWYGAFDIWGQGTTVTVSSGG
modifications: deferoxamine (p-SCN-Bn-DFO) conjugated and loaded with 89Zr; sites not stated
notes: Same polypeptide as H2a064 His-tag scFv, DFO-modified and 89Zr-labeled; also called H2a064 after 89Zr labeling; 89Zr-labeled DFO-His-tag-scFv H2a064
Kd [2]: 78.2 nM

B5: 89Zr-DFO-scFv H1a050 (scFv)
scFv: SYELTQPPSVSVSPGQTARITCSGNALPKQYAYWYQQKPGQAPVLMIYKDSERPSGIPERFSGSSSGTTVTLTISGVQAEDEADYYCQSADSSHTYKVFGGGTKLTVLGGGGSGGGGSGGGGSGGGGSEVQLVQSGGGLVQPDRSLRLSCAASGFTFDDYAMHWVRQAPGKGLEWVSGISWNSGSIGYADSVKGRFTISRDNAKNSLYLQMNSLRAEDTALYYCAKDLGSYYGSGSGMDVWGQGTTVTVSSGG
modifications: deferoxamine (p-SCN-Bn-DFO) conjugated and loaded with 89Zr; sites not stated
notes: Same polypeptide as H1a050 His-tag scFv, DFO-modified and 89Zr-labeled; also called H1a050 after 89Zr labeling; 89Zr-labeled DFO-His-tag-scFv H1a050
Kd [2]: 46.2 nM

B6: DFO-modified His-tag scFv H1a050 (scFv)
scFv: B5 scFv
modifications: deferoxamine (p-SCN-Bn-DFO) conjugated, chelator to scFv ratio 3:1 in the reaction; sites not stated
notes: Same polypeptide as H1a050 His-tag scFv, carrying the DFO chelator; also called H1a050 after DFO modification; DFO-His-tag-scFv H1a050
Kd [3]: 3.38 nM

Next, values leading:

Kd [1]: 59.6 nM
B1: anti-human MSLN His-tag scFv clone H2a064 (scFv)
scFv: B2 scFv
notes: Unlabeled His-tag scFv expressed in CHO cells; also called His-tag scFv H2a064; His-Tag-scFv H2a064

Kd [3]: 114 nM
B3: DFO-modified His-tag scFv H2a064 (scFv)
scFv: B2 scFv
modifications: deferoxamine (p-SCN-Bn-DFO) conjugated, chelator to scFv ratio 3:1 in the reaction; sites not stated
notes: Same polypeptide as H2a064 His-tag scFv, carrying the DFO chelator; also called H2a064 after DFO modification; DFO-His-tag-scFv H2a064

Kd [1]: 4.68 nM
ratio of MFI of scFv clone H1a050 to MFI of control (flow cytometry) [4]: 1.5 to 4.9 ratio
ratio of MFI of scFv clone H1a050 to MFI of control (flow cytometry) [5]: 1.5 to 4.9 ratio
ratio of MFI of scFv clone H1a050 to MFI of control (flow cytometry) [6]: 1.5 to 4.9 ratio
ratio of MFI of scFv clone H1a050 to MFI of control (flow cytometry) [7]: 1.5 to 4.9 ratio
ratio of MFI of scFv clone H1a050 to MFI of control (flow cytometry) [8]: 1.5 to 4.9 ratio
ratio of MFI of scFv clone H1a050 to MFI of control (flow cytometry) [9]: 1.5 to 4.9 ratio
ratio of MFI of scFv clone H1a050 to MFI of control (flow cytometry) [10]: 1.5 to 4.9 ratio
ratio of MFI of scFv clone H1a050 to MFI of control (flow cytometry) [11]: 1.5 to 4.9 ratio
ratio of MFI of scFv clone H1a050 to MFI of control (flow cytometry) [12]: ≥ 5 ratio
ratio of MFI of scFv clone H1a050 to MFI of control (flow cytometry) [13]: 1.5 to 4.9 ratio
ratio of MFI of scFv clone H1a050 to MFI of control (flow cytometry) [14]: ≥ 5 ratio
ratio of MFI of scFv clone H1a050 to MFI of control (flow cytometry) [15]: ≥ 5 ratio
ratio of MFI of scFv clone H1a050 to MFI of control (flow cytometry) [16]: ≥ 5 ratio
B4: anti-human MSLN His-tag scFv clone H1a050 (scFv)
scFv: B5 scFv
notes: Unlabeled His-tag scFv expressed in CHO cells; also called His-tag scFv H1a050; His-Tag-scFv H1a050
